Data published in the supplement of paper PMC10724198.
± gives the standard deviation of the averaged measurements.

The sequences below were run on Saccharomyces cerevisiae (assay: protein stability index of tFT-peptide fusion (C-terminal peptide) (PSI (0-1 scale)); higher = more stable (slower turnover)). Details: genetic background: das1 deletion; temperature: 30 C.
Procedure: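 MPS profiling in S. cerevisiae of the yeast C-terminome library: the last 12 aa of each annotated ORF are fused to the C-terminus of a sfGFP-mCherry timer, after a GGGS linker. Cells are FACS-sorted into 8 mCherry/sfGFP bins and deep-sequenced. PSI runs from 0 (unstable) to 1 (stable); wild type and das1Δ backgrounds, two technical replicates each.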

Q: How did the protein stability index turn out when INDKNTEYTLKE [MRX9 C-terminal 12 aa] was run?
A: 0.703 ± 0.019

Q: With INEFIEQSCKGE [YMR187C C-terminal 12 aa] as the sequence, how does the protein stability index read?
A: 0.687 ± 0.024

Q: For INQEAYQAFLRR [GUF1 C-terminal 12 aa], which protein stability index is on record?
A: 0.7022 ± 0.0031

Q: Which protein stability index does the source give for IPPLIWLRKKRC [PUL3 C-terminal 12 aa] here?
A: 0.69553 ± 0.00032

Q: Which protein stability index does the source give for IQEISAAVKKYT [SAM4 C-terminal 12 aa] here?
A: 0.704 ± 0.014

Q: How did the protein stability index turn out when IQTLRIKQDRYK [MAK10 C-terminal 12 aa] was run?
A: 0.711 ± 0.0083

Q: With ISEIEQLLSKLK [ATP4 C-terminal 12 aa] as the sequence, how does the protein stability index read?
A: 0.698 ± 0.014

Q: With ISNDMQVPPQIS [CKS1 C-terminal 12 aa] as the sequence, how does the protein stability index read?
A: 0.722 ± 0.0098

Q: With ISPSKSITMVAE [YDR526C C-terminal 12 aa] as the sequence, how does the protein stability index read?
A: 0.689 ± 0.011

Q: For ITNEVNIYSPFF [YOR105W C-terminal 12 aa], which protein stability index is on record?
A: 0.73841 ± 0.00012

Q: With IVFVPSSSYSVN [YJR157W C-terminal 12 aa] as the sequence, how does the protein stability index read?
A: 0.711 ± 0.014

Q: Which protein stability index does the source give for IVILIFDRLLSN [YGL081W C-terminal 12 aa] here?
A: 0.394 ± 0.021

Q: For IVIQVNNPLTRA [DOG1 C-terminal 12 aa], which protein stability index is on record?
A: 0.66 ± 0.011

Q: For IVIQVNNPLTRD [DOG2 C-terminal 12 aa], which protein stability index is on record?
A: 0.692 ± 0.099

Q: For IVQLGMSHGDIS [SMF1 C-terminal 12 aa], which protein stability index is on record?
A: 0.711 ± 0.028

Q: How did the protein stability index turn out when “IYAALPKSKIKL [YMR304C-A C-terminal 12 aa]” was run?
A: 0.698 ± 0.012

Q: IYEGFLDHANSF [TFB6 C-terminal 12 aa] was tested. Which protein stability index did it give?
A: 0.735 ± 0.011

Q: For KAEYLKNCPITQ [RPC40 C-terminal 12 aa], which protein stability index is on record?
A: 0.712 ± 0.012

Q: For KAIRRCQAIGLM [RSM18 C-terminal 12 aa], which protein stability index is on record?
A: 0.683 ± 0.014

Q: For KALKWEEQELNM [CCM1 C-terminal 12 aa], which protein stability index is on record?
A: 0.711 ± 0.015

Q: Which protein stability index does the source give for KAPKILYKRKGY [HPA2 C-terminal 12 aa] here?
A: 0.685 ± 0.024

Q: How did the protein stability index turn out when KATQAIIGYTFK [VMA13 C-terminal 12 aa] was run?
A: 0.70395 ± 0.00035

Q: Which protein stability index does the source give for “KCIRGGVFLWII [YGL014C-A C-terminal 12 aa]” here?
A: 0.605 ± 0.019

Q: How did the protein stability index turn out when KDELERVAKSNR [RPS5 C-terminal 12 aa] was run?
A: 0.6889 ± 0.0032

Q: KENSRSWIIYLL [YGL034C C-terminal 12 aa] was tested. Which protein stability index did it give?
A: 0.653 ± 0.016

Q: Which protein stability index does the source give for KESSTSSEKQIA [THI72 C-terminal 12 aa] here?
A: 0.67657 ± 0.00024

Q: With KFSTRMKLAHGK [SLX1 C-terminal 12 aa] as the sequence, how does the protein stability index read?
A: 0.698 ± 0.019

Q: KGIKGFFHRIFD [YGR126W C-terminal 12 aa] was tested. Which protein stability index did it give?
A: 0.6963 ± 0.002

Q: How did the protein stability index turn out when KHLAKALADLIS [JHD1 C-terminal 12 aa] was run?
A: 0.717 ± 0.018

Q: For “KICVTLIVNELI [YLR342W-A C-terminal 12 aa]”, which protein stability index is on record?
A: 0.4662 ± 0.0016

Q: How did the protein stability index turn out when KIHTAAIAAFKQ [ATP12 C-terminal 12 aa] was run?
A: 0.7013 ± 0.0055

Q: With KILKGAEKKPQL [CNA1 C-terminal 12 aa] as the sequence, how does the protein stability index read?
A: 0.689 ± 0.0099

Q: With KISTHSNAPSPG [SMA1 C-terminal 12 aa] as the sequence, how does the protein stability index read?
A: 0.669 ± 0.015

Q: With KIWVNIYSTPTS [PLS1 C-terminal 12 aa] as the sequence, how does the protein stability index read?
A: 0.6827 ± 0.0066

Q: For KKKGLFGRMKKK [YMR295C C-terminal 12 aa], which protein stability index is on record?
A: 0.719 ± 0.028

Q: With KKKKPAAEGAAK [TMA22 C-terminal 12 aa] as the sequence, how does the protein stability index read?
A: 0.696 ± 0.026

Q: KKKSRAKKPGNV [HDA3 C-terminal 12 aa] was tested. Which protein stability index did it give?
A: 0.685 ± 0.011

Q: KKKVEFSFPDDI [MIL1 C-terminal 12 aa] was tested. Which protein stability index did it give?
A: 0.701 ± 0.0087

Q: With KKPLFKRKVLQI [YNL205C C-terminal 12 aa] as the sequence, how does the protein stability index read?
A: 0.6883 ± 0.0025

Q: With KKVQSYTLQEDY [BUD13 C-terminal 12 aa] as the sequence, how does the protein stability index read?
A: 0.695 ± 0.015

Q: How did the protein stability index turn out when KLDDIIRARRSR [TGL3 C-terminal 12 aa] was run?
A: 0.7405 ± 0.0066

Q: How did the protein stability index turn out when KLENDISVKVED [NTG1 C-terminal 12 aa] was run?
A: 0.6863 ± 0.0054

Q: Which protein stability index does the source give for KLLEESKGLLDV [YJR079W C-terminal 12 aa] here?
A: 0.701 ± 0.023

Q: Which protein stability index does the source give for KNFQEHLRSING [AGC1 C-terminal 12 aa] here?
A: 0.695 ± 0.01

Q: With KNHEMGEEETKF [TCB1 C-terminal 12 aa] as the sequence, how does the protein stability index read?
A: 0.715 ± 0.0045

Q: How did the protein stability index turn out when KNNYSSRNSNIY [MSS116 C-terminal 12 aa] was run?
A: 0.713 ± 0.0098

Q: With KNRKRVLGVAYL [PXP3 C-terminal 12 aa] as the sequence, how does the protein stability index read?
A: 0.783 ± 0.022

Q: KNWGPKARPNTS [TRM1 C-terminal 12 aa] was tested. Which protein stability index did it give?
A: 0.698 ± 0.016

Q: How did the protein stability index turn out when KPIEKVYFNRGI [FSF1 C-terminal 12 aa] was run?
A: 0.713 ± 0.051

Q: Which protein stability index does the source give for KPIGEAAAIKEK [YLH47 C-terminal 12 aa] here?
A: 0.696 ± 0.027

Q: KQAIYTRATASE [RPS25A C-terminal 12 aa] was tested. Which protein stability index did it give?
A: 0.693 ± 0.012

Q: KQIDVHLDKNKA [GCD7 C-terminal 12 aa] was tested. Which protein stability index did it give?
A: 0.6862 ± 0.004

Q: How did the protein stability index turn out when KQIVFEIPSQTN [RPS7B C-terminal 12 aa] was run?
A: 0.69872 ± 0.00027

Q: How did the protein stability index turn out when KQMYKYHIIVLF [YBL083C C-terminal 12 aa] was run?
A: 0.305 ± 0.035

Q: For KRFTTNRNGNVI [GEF1 C-terminal 12 aa], which protein stability index is on record?
A: 0.732 ± 0.022

Q: How did the protein stability index turn out when KSCVSSLRVMAM [YNL276C C-terminal 12 aa] was run?
A: 0.608 ± 0.013

Q: Which protein stability index does the source give for KSEGGDLPHLVQ [SPS4 C-terminal 12 aa] here?
A: 0.701 ± 0.024

Q: With KSKFQERLQQGL [RET3 C-terminal 12 aa] as the sequence, how does the protein stability index read?
A: 0.701 ± 0.0071

Q: How did the protein stability index turn out when KVKTKKEEGKER [PXA2 C-terminal 12 aa] was run?
A: 0.698 ± 0.022

Q: Which protein stability index does the source give for KVPPRKDGIKFR [RTS2 C-terminal 12 aa] here?
A: 0.728 ± 0.0069

Q: For KWKKNKKRKFTK [UBP10 C-terminal 12 aa], which protein stability index is on record?
A: 0.729 ± 0.024

Q: For KWLLKPCIYKRR [RRP8 C-terminal 12 aa], which protein stability index is on record?
A: 0.717 ± 0.0061

Q: KYLNDEQVKLNV [ADE13 C-terminal 12 aa] was tested. Which protein stability index did it give?
A: 0.72 ± 0.026

Q: KYTGVYRSSWHG [YLR125W C-terminal 12 aa] was tested. Which protein stability index did it give?
A: 0.701 ± 0.0013

Q: KYVTQILYTPLQ [GAL83 C-terminal 12 aa] was tested. Which protein stability index did it give?
A: 0.692 ± 0.0075

Q: LAFFKRDFFKGL [NDI1 C-terminal 12 aa] was tested. Which protein stability index did it give?
A: 0.699 ± 0.02

Q: Which protein stability index does the source give for LAIEIVLCLKAR [YLR255C C-terminal 12 aa] here?
A: 0.331 ± 0.0034

Q: How did the protein stability index turn out when LALFAGLISALL [GAS3 C-terminal 12 aa] was run?
A: 0.71854 ± 0.00069

Q: LCEFLKGVQSAL [DAK1 C-terminal 12 aa] was tested. Which protein stability index did it give?
A: 0.7137 ± 0.005

Q: LCLLFFTFSLFF [GAS4 C-terminal 12 aa] was tested. Which protein stability index did it give?
A: 0.3594 ± 0.0027

Q: For LDDNELFKNVWS [AGE2 C-terminal 12 aa], which protein stability index is on record?
A: 0.728 ± 0.017

Q: How did the protein stability index turn out when LDVVKSRGSKHS [HSU1 C-terminal 12 aa] was run?
A: 0.7099 ± 0.003

Q: For LEKDTRQDTKAN [MCO10 C-terminal 12 aa], which protein stability index is on record?
A: 0.693 ± 0.0045

Q: For LENLSQEYCSEI [YBR096W C-terminal 12 aa], which protein stability index is on record?
A: 0.715 ± 0.029

Q: With LEVYASGNPNAT [NDC1 C-terminal 12 aa] as the sequence, how does the protein stability index read?
A: 0.697 ± 0.016

Q: For LEWLSNNLKNQS [ARF2 C-terminal 12 aa], which protein stability index is on record?
A: 0.702 ± 0.0047

Q: With LEYLQDTYQVLK [FAR3 C-terminal 12 aa] as the sequence, how does the protein stability index read?
A: 0.702 ± 0.031

Q: LEYYSNRDNDMN [RIF1 C-terminal 12 aa] was tested. Which protein stability index did it give?
A: 0.672 ± 0.042

Q: How did the protein stability index turn out when LFSDKMEPLFKK [AIF1 C-terminal 12 aa] was run?
A: 0.746 ± 0.018

Q: Which protein stability index does the source give for LGIVIKRGKSLK [YJU2 C-terminal 12 aa] here?
A: 0.7248 ± 0.0027

Q: Which protein stability index does the source give for LGVVSKMLVTCK [CIA2 C-terminal 12 aa] here?
A: 0.303 ± 0.026

Q: With LIALNRYIEDLH [MRP20 C-terminal 12 aa] as the sequence, how does the protein stability index read?
A: 0.6999 ± 0.0024
